Biological target: the molecule itself
Experiment: cryo-EM structure

B1: hERGTs (human hERG, truncated construct lacking residues 141–380 and 871–1005) (natural protein, UniProt Q12809 1-1159, looked up)
chain: MPVRRGHVAPQNTFLDTIIRKFEGQSRKFIIANARVENCAVIYCNDGFCELCGYSRAEVMQRPCTCDFLHGPRTQRRAAAQIAQALLGAEERKVEIAFYRKDGSCFLCLVDVVPVKNEDGAVIMFILNFEVVMEKDMVGSGADVLPEYKLQAPRIHRWTILHYSPFKAVWDWLILLLVIYTAVFTPYSAAFLLKETEEGPPATECGYACQPLAVVDLIVDIMFIVDILINFRTTYVNANEEVVSHPGRIAVHYFKGWFLIDMVAAIPFDLLIFGSGSEELIGLLKTARLLRLVRVARKLDRYSEYGAAVLFLLMCTFALIAHWLACIWYAIGNMEQPHMDSRIGWLHNLGDQIGKPYNSSGLGGPSIKDKYVTALYFTFSSLTSVGFGNVSPNTNSEKIFSICVMLIGSLMYASIFGNVSAIIQRLYSGTARYHTQMLRVREFIRFHQIPNPLRQRLEEYFQHAWSYTNGIDMNAVLKGFPECLQADICLHLNRSLLQHCKPFRGATKGCLRALAMKFKTTHAPPGDTLVHAGDLLTALYFISRGSIEILRGDVVVAILGKNDIFGEPLNLYARPGKSNGDVRALTYCDLHKIHRDDLLEVLDMYPEFSDHFWSSLEITFNLRDTNMIPGGRQYQELPRCPAPTPSLLNIPLSSPGRRPRGDVESRLDALQRQLNRLETRLSADMATVLQLLQRQMTLVPPAYSAVTTPGPGPTSTSPLLPVSPLPTLTLDSLSQVSQFMACEELPPGAPELPQEGPTRRLSLPGQLGALTSQPLHRHGSDPGS
- binding result: binds
